Measurements from US7820142B2, “Immunogenic glycopeptides, screening, preparation and uses” (priority 2004, dated 2010).
Entries after “also recorded” stand apart in the source; their conditions may differ. Read-outs that look alike come from different tables or passages of the source. No end group written: not given here.

Experiments:
[1] = tested on: guinea pigs immunized with live BCG; format: in vivo, guinea pig; conditions: for loss of antigenic activity during digestion with α-mannosidase: 0.2 μg intradermal
[2] = tested on: guinea pigs immunized with heat-inactivated BCG; format: in vivo, guinea pig
T lymphocytes = test: in vitro lymphocyte proliferation assay; format: cell-based
Excerpt: The conditions of the assay are those described in Horn et al., mentioned above.

CD4+ T lymphocytes = format: cell-based, human; conditions: for difference of response between tuberculosis patients and vaccinated controls (in words): 18 patients versus 12 BCG-vaccinated controls
[3] = tested on: guinea pigs immunized with the plasmids pAG831 or pAG832; test: delayed-type hypersensitivity assay, guinea pigs immunized with naked DNA encoding Apa; conditions: guinea pig, in vivo
[4] = tested on: guinea pigs immunized with the Apa fusion peptide; test: delayed hypersensitivity reactions, guinea pigs immunized with the Apa fusion peptide; format: in vivo, guinea pig
[5] = tested on: CD4+ T lymphocytes originating from animals infected with M. tuberculosis or immunized with BCG; conditions: cited from earlier work
[6] = guinea pigs immunized with live BCG

With “Lip: mannosylated glycopeptide purified from M. tuberculosis culture medium, derived from the protein encoded by the Rv1796 gene (SEQ ID NO:3) (Ac-TIPTTETPPPPQTVTLSPVPPQTVTVIPAPPPEEG; also: mannosylated; listed as Mycobacterium tuberculosis)” the “erythema reaction, peptide treated with subtilisin” value ([1]; 0.02 μg in 0.1 ml) was “negative”, the “erythema reaction, peptide treated with α-mannosidase” value ([1]; 0.02 μg in 0.1 ml) was “negative” and the “antigenic activity after deglycosylation” value ([1]; after α-mannosidase for 24 h at 37° C.) was “less than 30 000 TU/mg”. For the same molecule, the antigenic activity [1, 6] was 1 000 000 TU/mg, the “delayed-type hypersensitivity reaction (in words)” value [1, 6] was “very active” and the “antigenic activity after the action of subtilisin” value ([1]; subtilisin 24 h at 37° C.) was “abolishes the antigenic activity”. For the same molecule, the “activity relative to PPD at an equivalent amount of proteins” value ([1]; versus standard purified proteins from M. tuberculosis (PPD)) was “at least 10 times”, the “loss of antigenic activity after α-mannosidase” value ([1]; α-mannosidase for 24 h at 37° C.) was “more than 95%” and the “delayed-type hypersensitivity reaction (in words)” value [2] was “relatively inactive”. For the same molecule, the T-lymphocyte proliferation (T lymphocytes; T lymphocytes treated with an antibody directed against CD4 molecules) was “marginal”, the T-lymphocyte proliferation (T lymphocytes; glycopeptide treated with α-mannosidase) was “marginal” and the T-lymphocyte proliferation (T lymphocytes; native glycopeptide) was “dependent on the peptide concentration”.

In the case of “H-DPEPAPPVPTTAASPPSTAAAPPAPATPVAPPPPAPAAAT-NH2 [glycosylated Apa peptide]”, the “stimulation of CD4+ lymphocytes from the controls” value (CD4+ T lymphocytes) is reported as “does not stimulate” and the “proportion of tuberculosis patients positive in the assay” value (CD4+ T lymphocytes; 18 tuberculosis patients, six days stimulation) is reported as 13/18.

B1: Native Apa: protein secreted by M. tuberculosis, product of the Rv 1860 gene, purified from the culture supernatant (protein, UniProt P9WIR7 40-325, looked up)
Alanine and proline-rich …: DPEPAPPVPTTAASPPSTAAAPPAPATPVAPPPPAAANTPNAQPGDPNAAPPPADPNAPPPPVIAPNAPQPVRIDNPVGGFSFALPAGWVESDAAHFDYGSALLSKTTGDPPFPGQPPPVANDTRIVLGRLDQKLYASAEATDSKAAARLGSDMGEFYMPYPGTRINQETVSLDANGVSGSASYYEVKFSDPSKPNGQIWTGVIGSPAANAPDAGPPQRWFVVWLGTANNPVDKGAAKALAESIRPLVAPPPAPAPAPAEPAPAPAPAGEVAPTPTTPTPQRTLPA
modifications: glycosylated native
notes: protein secreted by M. tuberculosis, product of the Rv 1860 gene, purified from the culture supernatant
In the case of B1, the “loss of antigenic activity” value ([1]; Apa molecules on which there remain 3 to 6 mannose residues) is reported as 86%, the “loss of antigenic activity during digestion with α-mannosidase” value ([1]; digestion 1 h) is reported as 66% and the “loss of antigenic activity during digestion with α-mannosidase” value ([1]; digestion 4 h) is reported as 86%. The “delayed-type hypersensitivity reaction (in words)” value [1, 6] was “antigenic; also recorded: show a delayed-type hypersensitivity reaction; also recorded: considerable”, the “delayed-type hypersensitivity / CD4+ T lymphocyte response (in words)” value [3] was “equivalent; also recorded: develop, in the vast majority of cases, an immune response” and the “sensitization (in words)” value [4] was “identical”. The “difference of response between tuberculosis patients and vaccinated controls (in words)” value (CD4+ T lymphocytes) was “stimulates more frequently the response from the patients” and the “loss of antigenicity after demannosylation” value ([5]; α-mannosidase, TFMS or expression in E. coli) was 100 fold.

B2: E. Coli recombinant Apa: deglycosylated recombinant Apa produced in E. coli (protein, UniProt P9WIR7 40-325, looked up)
Alanine and proline-rich …: DPEPAPPVPTTAASPPSTAAAPPAPATPVAPPPPAAANTPNAQPGDPNAAPPPADPNAPPPPVIAPNAPQPVRIDNPVGGFSFALPAGWVESDAAHFDYGSALLSKTTGDPPFPGQPPPVANDTRIVLGRLDQKLYASAEATDSKAAARLGSDMGEFYMPYPGTRINQETVSLDANGVSGSASYYEVKFSDPSKPNGQIWTGVIGSPAANAPDAGPPQRWFVVWLGTANNPVDKGAAKALAESIRPLVAPPPAPAPAPAEPAPAPAPAGEVAPTPTTPTPQRTLPA
modifications: recombinant, non-glycosylated, E. coli
With B2 the “delayed-type hypersensitivity reaction (in words)” value ([1]; guinea pigs immunized with live BCG, listed as molecules produced in E. coli) was “very weak or absent”, the “delayed-type hypersensitivity reaction (in words)” value ([1]; guinea pigs immunized with live BCG, listed as non-glycosylated recombinant Apa produced in E. coli) was “no reaction or develop a greatly decreased reaction” and the “delayed-type hypersensitivity / CD4+ T lymphocyte response (in words)” value [3] was “of the same strength as the responses observed with the glycosylated native antigen”. For the same molecule, the “delayed-type hypersensitivity / CD4+ T lymphocyte response (in words)” value ([3]; listed as E. coli rApa) was “equivalent”.

B3: Deglycosylated Apa: deglycosylated Apa protein prepared as described in example 1 (digestion with α-mannosidase) (protein, UniProt P9WIR7 40-325, looked up)
Alanine and proline-rich …: DPEPAPPVPTTAASPPSTAAAPPAPATPVAPPPPAAANTPNAQPGDPNAAPPPADPNAPPPPVIAPNAPQPVRIDNPVGGFSFALPAGWVESDAAHFDYGSALLSKTTGDPPFPGQPPPVANDTRIVLGRLDQKLYASAEATDSKAAARLGSDMGEFYMPYPGTRINQETVSLDANGVSGSASYYEVKFSDPSKPNGQIWTGVIGSPAANAPDAGPPQRWFVVWLGTANNPVDKGAAKALAESIRPLVAPPPAPAPAPAEPAPAPAPAGEVAPTPTTPTPQRTLPA
modifications: deglycosylated
In the case of B3, the “delayed-type hypersensitivity reaction (in words)” value [1, 6] is reported as “very weak or absent”, the “delayed-type hypersensitivity / CD4+ T lymphocyte response (in words)” value [3] is reported as “of the same strength as the responses observed with the glycosylated native antigen” and the “sensitization (in words)” value [4] is reported as “identical”. For the same molecule, the “difference of response between tuberculosis patients and vaccinated controls (in words)” value (CD4+ T lymphocytes) was “this difference between the groups is lost”.

B4: glycosylated Apa produced by Mycobacterium smegmatis: Apa produced by M. smegmatis, overall mannose composition slightly different from that of M. tuberculosis Apa (protein, UniProt P9WIR7 40-325, looked up)
Alanine and proline-rich …: DPEPAPPVPTTAASPPSTAAAPPAPATPVAPPPPAAANTPNAQPGDPNAAPPPADPNAPPPPVIAPNAPQPVRIDNPVGGFSFALPAGWVESDAAHFDYGSALLSKTTGDPPFPGQPPPVANDTRIVLGRLDQKLYASAEATDSKAAARLGSDMGEFYMPYPGTRINQETVSLDANGVSGSASYYEVKFSDPSKPNGQIWTGVIGSPAANAPDAGPPQRWFVVWLGTANNPVDKGAAKALAESIRPLVAPPPAPAPAPAEPAPAPAPAGEVAPTPTTPTPQRTLPA
modifications: glycosylated, produced in M. smegmatis
For B4, the “decrease of antigenic activity versus Apa produced by M. tuberculosis” value [5] is listed as “approximately 10 fold”.
